Results as given in US20240101959A1, “USE OF IL-2R-BETA-GAMMA AGONIST PEPTIDES IN CELL MANUFACTURING” (MEDIKINE, INC., priority 2022, published 2024).

T1: hu-IL-2Rβ subunit (human, UniProt P14784 27-240, limits assumed)
T1 construct: also called human interleukin-2 receptor subunit β; CD122
T1 sequence (looked up): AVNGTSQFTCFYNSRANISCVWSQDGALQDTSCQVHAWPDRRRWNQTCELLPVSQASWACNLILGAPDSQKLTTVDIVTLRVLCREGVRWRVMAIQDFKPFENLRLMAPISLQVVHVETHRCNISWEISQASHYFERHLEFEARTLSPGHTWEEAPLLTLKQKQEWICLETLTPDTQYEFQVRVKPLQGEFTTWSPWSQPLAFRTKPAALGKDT

T2: hu-IL-2Rγc subunit (human), P31785
T2 chain: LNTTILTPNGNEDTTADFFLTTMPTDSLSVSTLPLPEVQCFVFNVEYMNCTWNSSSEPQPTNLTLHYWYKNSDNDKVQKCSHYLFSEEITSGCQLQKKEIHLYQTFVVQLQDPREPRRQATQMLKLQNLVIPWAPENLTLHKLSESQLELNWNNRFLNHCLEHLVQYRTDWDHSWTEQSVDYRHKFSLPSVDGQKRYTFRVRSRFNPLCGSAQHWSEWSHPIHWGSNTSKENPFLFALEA

B1: SEQ ID NO 172 (peptide)
peptide: SGHCYPCWLAGLGELCDLNCG
B2: SEQ ID NO 168 (peptide)
peptide: WYPCWMANLGELCDLEAERSPV
B3: SEQ ID NO 163 (peptide)
peptide: RVTWYPCWMAQLGELCDLEESV
B4: SEQ ID NO 171 (peptide)
peptide: WYPCWIARLGELCDLETSGGFP
B5: SEQ ID NO 166 (peptide)
peptide: WYPCWMAQLGELCDLDDHWPAM
B6: SEQ ID NO 179 (peptide)
peptide: WFPCWMAQLGEVCDLD
B7: SEQ ID NO 161 (peptide)
peptide: KSGWYPCWMAKLGELCDLEAQP
B8: SEQ ID NO 165 (peptide)
peptide: YLPCWMAHLGELCDLDSPLKAR
B9: SEQ ID NO 162 (peptide)
peptide: GPRFYPCWIAQLGELCDLEDMG
B10: SEQ ID NO 169 (peptide)
peptide: RDQYYPCWMAQLGELCDLDEVF
B11: SEQ ID NO 167 (peptide)
peptide: WYPCWRAQLGELCDLDPPIAVE
B12: SEQ ID NO 181 (peptide)
peptide: SLPCWMAQLGDLCELH
B13: SEQ ID NO 178 (peptide)
peptide: VRAWYPCWIARLGELCDLEVD
B14: SEQ ID NO 180 (peptide)
peptide: WYPCHMAKLRELCDLD
B15: SEQ ID NO 164 (peptide)
peptide: WLPCWMAQLGDLCDLEQYVPLP
B16: SEQ ID NO 685 (peptide)
peptide: INCQTWNGVELCWVDEGLYQ
modifications: not checked
B17: SEQ ID NO 676 (peptide)
peptide: KSQVECQDWEGVELCWVVSE
modifications: not checked
B18: SEQ ID NO 663 (peptide)
peptide: ERPRSFIECQEWEGVELCWL
modifications: not checked
B19: SEQ ID NO 648 (peptide)
peptide: DFERSYVVCQDWDGVELCWI
modifications: not checked
B20: SEQ ID NO 669 (peptide)
peptide: GNDDSYIVCEEWKGVELCWI
modifications: not checked
B21: SEQ ID NO 655 (peptide)
peptide: GQGREVVVCHDWYGVELCWQ
modifications: not checked
B22: SEQ ID NO 677 (peptide)
peptide: KITVECQDWDGVELCWPTWI
modifications: not checked
B23: SEQ ID NO 650 (peptide)
peptide: SAPERWVECEDWQGVELCWV
modifications: not checked
B24: SEQ ID NO 668 (peptide)
peptide: TWNMSELECQDWNGVEICWH
modifications: not checked
B25: SEQ ID NO 660 (peptide)
peptide: IVCEDWRGVELCWI
modifications: not checked
B26: SEQ ID NO 652 (peptide)
peptide: VVCQDWEGVELCWQ
modifications: not checked
B27: SEQ ID NO 671 (peptide)
peptide: LNRSVWIECEEYEGVELCWL
modifications: not checked
B28: SEQ ID NO 678 (peptide)
peptide: RPQIECQEWQGVELCWTREE
modifications: not checked
B29: SEQ ID NO 683 (peptide)
peptide: PYGVVCQDWAGVELCWVENR
modifications: not checked
B30: SEQ ID NO 653 (peptide)
peptide: DVVCQNWEGVDLCWH
modifications: not checked
B31: SEQ ID NO 682 (peptide)
peptide: GYGVLCQEWQGVELCWPVQREAGV
modifications: not checked
B32: SEQ ID NO 639 (peptide)
peptide: PEGREVVVCRDWYGVELCWQ
modifications: not checked
B33: SEQ ID NO 679 (peptide)
peptide: VSCQEWDGVELCWVDGDLAA
modifications: not checked
B34: SEQ ID NO 645 (peptide)
peptide: VECQEWGGVELCWC
modifications: not checked
B35: SEQ ID NO 644 (peptide)
peptide: TANQTVVECQVWGGVELCWQ
modifications: not checked
B36: SEQ ID NO 680 (peptide)
peptide: IMCQEWDGVELCWLERDKAN
modifications: not checked
B37: SEQ ID NO 658 (peptide)
peptide: TLGRTVVECQDWGGVELCWQ
modifications: not checked
B38: SEQ ID NO 638 (peptide)
peptide: IECEEWRGVELCWQ
modifications: not checked
B39: SEQ ID NO 647 (peptide)
peptide: IVCEEWRGVELCWL
modifications: not checked
B40: SEQ ID NO 640 (peptide)
peptide: IWGRTVVECQDWEGVELCWQ
modifications: not checked
B41: SEQ ID NO 665 (peptide)
peptide: ANQNTVVECQDWHGVELCWQ
modifications: not checked
B42: SEQ ID NO 662 (peptide)
peptide: GDRPKEVVCEDWKGVELCWI
modifications: not checked
B43: SEQ ID NO 656 (peptide)
peptide: DWRRSVVECQDWYGVELCWQ
modifications: not checked
B44: SEQ ID NO 681 (peptide)
peptide: GLEIACEDWYGVELCWLRRA
modifications: not checked
B45: SEQ ID NO 654 (peptide)
peptide: SAGRQEVVCQDWNGVELCWI
modifications: not checked
B46: SEQ ID NO 657 (peptide)
peptide: DVVCQNWDGVDLCWH
modifications: not checked

target: T1, hu-IL-2Rβ subunit; assay: phage ELISA competition assay

Row | IC50 [µM] | Binder
1 | < 100 | B1
2 | < 100 | B2
3 | < 100 | B3
4 | < 100 | B4
5 | < 100 | B5
6 | < 100 | B6
7 | < 100 | B7
8 | < 100 | B8
9 | < 100 | B9
10 | < 100 | B10
11 | < 100 | B11
12 | < 100 | B12
13 | < 100 | B13
14 | < 100 | B14
15 | < 100 | B15

Target: T2, hu-IL-2Rγc subunit (human), P31785
Assay: phage ELISA competition assay

Row | IC50 [µM] | Binder
16 | < 10 | B16
17 | < 10 | B17
18 | < 10 | B18
19 | < 10 | B19
20 | < 10 | B20
21 | < 10 | B21
22 | < 10 | B22
23 | < 10 | B23
24 | < 10 | B24
25 | < 10 | B25
26 | < 10 | B26
27 | < 10 | B27
28 | < 10 | B28
29 | < 10 | B29
30 | < 10 | B30
31 | < 10 | B31

Row | IC50 [µM] | Binder
32 | < 10 | B32
33 | < 10 | B33
34 | < 10 | B34
35 | < 10 | B35
36 | < 10 | B36
37 | < 10 | B37
38 | < 10 | B38
39 | < 10 | B39
40 | < 10 | B40
41 | < 10 | B41
42 | < 10 | B42
43 | < 10 | B43
44 | < 10 | B44
45 | < 10 | B45
46 | < 10 | B46

Target: T2, hu-IL-2Rγc subunit (human), P31785
Assay: not given

Row | IC50 [µM] | Binder
47 | < 100 | B16
48 | < 100 | B17
49 | < 100 | B18
50 | < 100 | B19
51 | < 100 | B20
52 | < 100 | B21
53 | < 100 | B22
54 | < 100 | B23
55 | < 100 | B24
56 | < 100 | B25
57 | < 100 | B26
58 | < 100 | B27
59 | < 100 | B28
60 | < 100 | B29
61 | < 100 | B30
62 | < 100 | B31

Row | IC50 [µM] | Binder
63 | < 100 | B32
64 | < 100 | B33
65 | < 100 | B34
66 | < 100 | B35
67 | < 100 | B36
68 | < 100 | B37
69 | < 100 | B38
70 | < 100 | B39
71 | < 100 | B40
72 | < 100 | B41
73 | < 100 | B42
74 | < 100 | B43
75 | < 100 | B44
76 | < 100 | B45
77 | < 100 | B46
